Test results as given in the FLAb antibody collection (doi:10.7554/elife.23156).

B1: scFv; the commonest letter at each place (parent)
chain 1: EVKLDETGGGLVQPGRPMKLSCVASGFTFSDYWMNWVRQSPEKGLEWVAQIRNKPYNYETYYSDSVKGRFTISRDDSKSSVYLQMNNLRVEDMGIYYCTGSYYGMDYWGQGTSVTVS
chain 2: DVVMTQTPLSLPVSLGDQASISCRSSQSLVHSNGNTYLRWYLQKPGQSPKVLIYKVSNRFSGVPDRFSGSGSGTDFTLKISRVEAEDLGVYFCSQSTHVPWTFGGGTKLEIK

Legend:
fluorescein = variants of: B1; assay: Kd (Tite-Seq); details: with fluorescein; format: scFv 4-4-20, heavy + light
[1] = variants of: B1; assay: yeast surface expression (ratio to wild type); higher = more expressed; details: format: scFv 4-4-20, heavy + light

Variant | Kd (fluorescein) | yeast surface expression [1]
chain 1 D31H V37I | 0.00062 µM | 0.799
chain 1 Y107N G109S | 0.0391 µM | 0.836
chain 1 Y107T G109C | ≥ 10 µM | 0.278
chain 1 T28E F29Q | 0.00827 µM | 1
chain 1 Y103F G104R W108Y | ≥ 10 µM | 0.139
chain 1 S101V Y102E | ≥ 10 µM | 0.509
chain 1 F29A V37S | ≥ 10 µM | 0.545
chain 1 S30A N35Y | ≥ 10 µM | 0.655
chain 1 T28C M34S | ≥ 10 µM | 0.611
chain 1 F29M S30H Y32S | ≥ 10 µM | 0.982
chain 1 D31A V37E | ≥ 10 µM | 2.19
chain 1 T28V N35H | ≥ 10 µM | 0.671
chain 1 D106M | ≥ 10 µM | 0.574
chain 1 D106K | ≥ 10 µM | 0.415
chain 1 D106E | 0.0221 µM | 1.1
chain 1 D106Q | 5.66 µM | 0.846
chain 1 D106P | ≥ 10 µM | 0.635
chain 1 G100N Y107K | ≥ 10 µM | 0.6
chain 1 Y102F | 0.00309 µM | 0.776
chain 1 Y102E | ≥ 10 µM | 0.889
chain 1 W108A G109H | ≥ 10 µM | 0.356
chain 1 Y103L Y107S | 0.55 µM | 0.878
chain 1 S101T Y102H | ≥ 10 µM | 0.748

Variant | Kd (fluorescein) | yeast surface expression [1]
chain 1 F29Y V37P | 0.228 µM | 2.26
chain 1 T28Q D31A | 0.00575 µM | 0.845
chain 1 F29N V37D | ≥ 10 µM | 0.229
chain 1 G104R Y107W | ≥ 10 µM | 0.257
chain 1 T28V S30Q | 0.000989 µM | 1.1
chain 1 G109D | 3.64 µM | 0.573
chain 1 T28M S30L | 0.0107 µM | 0.725
chain 1 T28M S30W | 0.00708 µM | 0.645
chain 1 Y103M W108A | 0.00746 µM | 0.484
chain 1 T28S M34R | ≥ 10 µM | 1.99
chain 1 F29A W36S | ≥ 10 µM | 0.313
chain 1 F29A W36A | ≥ 10 µM | 0.822
chain 1 G100R Y107N G109K | ≥ 10 µM | 0.235
chain 1 D31I Y32F | ≥ 10 µM | 0.369
chain 1 G104S W108E | ≥ 10 µM | 0.198
chain 1 G100Y Y103C | ≥ 10 µM | 0.567
chain 1 Y107D W108C | ≥ 10 µM | 0.269
chain 1 T28W S30F | 0.00606 µM | 0.69
chain 1 D31G Y32D | ≥ 10 µM | 0.803
chain 1 F29D S30K | ≥ 10 µM | 0.968
chain 1 S30P W33P | ≥ 10 µM | 0.628
chain 1 G100Q M105S | ≥ 10 µM | 0.521
chain 1 D31M Y32S | ≥ 10 µM | 0.804

Variant | Kd (fluorescein) | yeast surface expression [1]
chain 1 T28E D31K | 0.00184 µM | 0.969
chain 1 S30P N35G | 0.00468 µM | 1.19
chain 1 T28A D31W | 0.00638 µM | 0.862
chain 1 Y103S | 0.0318 µM | 1.05
chain 1 Y103N | 0.00708 µM | 1.17
chain 1 D106A Y107I | 6.61 µM | 0.646
chain 1 M34V W36N | ≥ 10 µM | 0.502
chain 1 N35D W36V | ≥ 10 µM | 0.668
chain 1 G104D Y107F | ≥ 10 µM | 0.945
chain 1 S101K D106V | ≥ 10 µM | 0.257
chain 1 M105D G109F | ≥ 10 µM | 0.218
chain 1 T28A W33S | ≥ 10 µM | 0.826
chain 1 S101W Y107K | ≥ 10 µM | 0.427
chain 1 F29D Y32E | ≥ 10 µM | 0.599
chain 1 S101D Y102F | ≥ 10 µM | 0.93
chain 1 S30M M34P | ≥ 10 µM | 2.67
chain 1 G100I Y107P | ≥ 10 µM | 0.276
chain 1 G100I Y107E | ≥ 10 µM | 0.689
chain 1 Y102T Y103R | ≥ 10 µM | 1.21
chain 1 M34S W36Q | ≥ 10 µM | 0.147
chain 1 W33M V37P | ≥ 10 µM | 0.458
chain 1 Y102V W108G | ≥ 10 µM | 0.298
chain 1 W108I G109F | 0.02 µM | 0.186

Variant | Kd (fluorescein) | yeast surface expression [1]
chain 1 F29V W36L | ≥ 10 µM | 0.332
chain 1 S101H | ≥ 10 µM | 0.737
chain 1 S101W | ≥ 10 µM | 0.618
chain 1 S101K | ≥ 10 µM | 0.463
chain 1 F29L D31L | ≥ 10 µM | 0.633
chain 1 G100V G109Y | ≥ 10 µM | 0.271
chain 1 S101P G104W | ≥ 10 µM | 0.299
chain 1 Y103V M105P | ≥ 10 µM | 0.474
chain 1 Y107V W108Y | 0.000688 µM | 0.724
chain 1 Y103F W108Q | 0.00672 µM | 0.382
chain 1 M34F | 0.00226 µM | 0.988
chain 1 W33R M34I | ≥ 10 µM | 0.644
chain 1 Y103N G104T | ≥ 10 µM | 0.851
chain 1 M34I W36M | 0.712 µM | 0.783
chain 1 S30M Y32R | 4.84 µM | 0.465
chain 1 Y102M D106A W108A | ≥ 10 µM | 0.612
chain 1 T28A F29K | ≥ 10 µM | 0.821
chain 1 G100T D106V | ≥ 10 µM | 0.468
chain 1 T28S W33F | 1.02 µM | 0.903
chain 1 D106W G109D | ≥ 10 µM | 0.186
chain 1 S30H Y32T | ≥ 10 µM | 0.891
chain 1 M105R G109T | ≥ 10 µM | 0.344
chain 1 F29N W33P | ≥ 10 µM | 0.333

Variant | Kd (fluorescein) | yeast surface expression [1]
chain 1 F29R V37E | 1.08 µM | 0.545
chain 1 G104Q Y107V | ≥ 10 µM | 0.941
chain 1 S30A D31A V37C | 0.00158 µM | 0.739
chain 1 Y103T D106Y | ≥ 10 µM | 0.37
chain 1 Y103W G104F M105E | ≥ 10 µM | 0.578
chain 1 Y32C M34K | ≥ 10 µM | 1.04
chain 1 S30R M34C | 0.00444 µM | 0.668
chain 1 T28A W33R N35I | ≥ 10 µM | 0.622
chain 1 S30V M34H | ≥ 10 µM | 0.497
chain 1 W33R W36Y | ≥ 10 µM | 0.561
chain 1 W33V N35T | ≥ 10 µM | 0.89
chain 1 D31Q W33T | ≥ 10 µM | 0.793
chain 1 S30I Y32T | ≥ 10 µM | 0.909
chain 1 T28H | 0.00158 µM | 0.965
chain 1 W33E V37L | ≥ 10 µM | 0.674
chain 1 S101D Y107E | ≥ 10 µM | 1.03
chain 1 M34G N35Q | ≥ 10 µM | 0.503
chain 1 F29H | 3.74 µM | 0.884
chain 1 Y102A Y103K | 4.14 µM | 1.15
chain 1 S30M V37M | 0.000504 µM | 0.887
chain 1 S101M D106G | ≥ 10 µM | 0.323
chain 1 F29L S30C N35A | ≥ 10 µM | 0.89
chain 1 S101V Y103F D106V | ≥ 10 µM | 0.283
